Source: paper PMC6901390, “Cell-Free Enzymatic Conversion of Spent Coffee Grounds Into the Platform Chemical Lactic Acid” (Frontiers in Bioengineering and Biotechnology, 2019)

Assays:
Test in all cases: purified protein
[1] = substrate: CC(=O)C(=O)O; format: biochemical, Thermoplasma acidophilum; settings: pyruvate and D-glyceraldehyde varied together (0.5-40 mM), one combined Km, 20 mM sodium phosphate pH 7.0, 50 °C
[2] = substrate: O=C[C@H](O)CO; settings: pyruvate and D-glyceraldehyde varied together (0.5-40 mM), one combined Km, 20 mM sodium phosphate pH 7.0, 50 °C
[3] = substrate: CC(=O)C(=O)O; format: biochemical, Geobacillus stearothermophilus; settings: 0.2 mM NADH, 20 mM sodium phosphate pH 7.0, 50 °C, 0-50 mM pyruvate

Protein	Km [1]	Vmax [1]	kcat [1]	kcat/Km [1]	Km [2]	Vmax [2]	kcat [2]	kcat/Km [2]	Km [3]	Vmax [3]	kcat [3]	kcat/Km [3]
KDGA (Thermoplasma acidophilum DSM 1728) (protein, His-tagged, pProEX HTc, expressed in E. coli BL21-CodonPlus (DE3)-RIL, Ni-NTA purified) MYKGIVTPMITPMGQNGEIDYRATEILIDNLADFGVDGLFPMGSTGLFPMFSTDEKKKFLGFVRDHSKKIEVYAGVGSSSTQESVELSKYTEDIGIKVRVLMPTYYIKPDEDWMYRHFSTVISAASNDLFIYNIPQLSGSWISESLIEKLTREFSNVKGIKDSSGDMRFFSRIIRHKNEKFDIFQGQDDLLFLSLSIGASGGVCGLSNISPYITNLYHEFSAGNLEKARKIQIDEVNPLMYAINEATFPAGYYYAFYKMNGIKGGYRAPMVEPTTDQKKKIDQELTKIPKKQ	8.07 ± 1.29 mM	17 µmol/min/mg	10.5 s⁻¹	1300 M⁻¹ s⁻¹	8.07 ± 1.29 mM	17 µmol/min/mg	10.5 s⁻¹	1300 M⁻¹ s⁻¹				
LDH (Geobacillus stearothermophilus) (protein, synthetic gene, His-tagged, pETDuet-1, expressed in E. coli BL21 (DE3), Ni-NTA purified) MKNNGGARVVVIGAGFVGASYVFALMNQGIADEIVLIDANESKAIGDAMDFNHGKVFAPKPVDIWHGDYDDCRDADLVVICAGANQKPGETRLDLVDKNIAIFRSIVESVMASGFQGLFLVATNPVDILTYATWKFSGLPHERVIGSGTILDTARFRFLLGEYFSVAPQNVHAYIIGEHGDTELPVWSQAYIGVMPIRKLVESKGEEAQKDLERIFVNVRDAAYQIIEKKGATYYGIAMGLARVTRAILHNENAILTVSAYLDGLYGERDVYIGVPAVINRNGIREVIEIELNDDEKNRFHHSAATLKSVLARAFTR									10.95 ± 1.67 mM	194 µmol/min/mg	117 s⁻¹	10600 M⁻¹ s⁻¹
